Reference: patent US20150315252A1

Target: CherryPicker DmrA chimeric protein
Test: cell-based or functional assay

## AcGFP-DmrC fusion protein
  amount of AcGFP-DmrC in microvesicles produced with A/C heterodimerizer (western blot against AcGFP standards): 5 ng/µL
  amount of AcGFP-DmrC in microvesicles produced without A/C heterodimerizer (western blot against AcGFP standards): 0.6 ng/µL
  packaging efficiency of AcGFP-DmrC into microvesicles, +A/C against -A/C: 8 fold
